B1: PlyCB, the cell wall binding subunit of the endolysin PlyC (PlyCB CBD, an octamer) (natural protein)
chain: MSKINVNVENVSGVQGFLFHTDGKESYGYRAFINGVEIGIKDIETVQGFQQIIPSINISKSDVEAIRKAMKK
notes: PlyCB, 8 kDa subunit of the streptococcal bacteriophage endolysin PlyC; Above about 74 °C in PBS the octamer is said to dissociate reversibly into a monomeric intermediate state; also called PlyCB octamer; PlyCB subunit; source: also as a subunit of the purified recombinant PlyC holoenzyme
B2: PlyCA, the catalytic subunit of the endolysin PlyC (enzyme, UniProt Q7Y3F1 1-465, looked up)
chain: MSKKYTQQQYEKYLAQPANNTFGLSPQQVADWFMGQAGARPVINSYGVNASNLVSTYIPKMQEYGVSYTLFLMYTVFEGGGAGNWINHYMYDTGSNGLECLEHDLQYIHGVWETYFPPALSAPECYPATEDNAGALDRFYQSLPGRTWGDVMIPSTMAGNAWVWAYNYCVNNQGAAPLVYFGNPYDSQIDSLLAMGADPFTGGSITGDGKNPSVGTGNATVSASSEANREKLKKALTDLFNNNLEHLSGEFYGNQVLNAMKYGTILKCDLTDDGLNAILQLIADVNLQTNPNPDKPTVQSPGQNDLGSGSDRVAANLANAQAQVGKYIGDGQCYAWVGWWSARVCGYSISYSTGDPMLPLIGDGMNAHSIHLGWDWSIANTGIVNYPVGTVGRKEDLRVGAIWCATAFSGAPFYTGQYGHTGIIESWSDTTVTVLEQNILGSPVIRSTYDLNTFLSTLTGLITFK

Series [1] deals with the molecule itself. Briefly: cross-linking; PlyCB CBD 1 mg/mL in PBS heated 10 min at temperatures up to 74.4 °C, amine cross-linking with 1 mM BS3 for 10 min, quenched with Tris, cooled on ice, SDS-PAGE.
The target of series [2] is B2. The series is described as follows: SEC; 500 uL ice-cold 19.5 uM PlyCA added rapidly to 500 uL 15.6 uM PlyCB CBD in PBS heated to 75 °C, cooled on ice 5 min, centrifuged, HiPrep 16/60 Sephacryl S-200 HR in PBS; the peak corresponding to native PlyC analysed by SDS-PAGE. The settings on record: both partners purified. A general note: In gel filtration, larger molecules generally elute earlier.

In series [3] the target is B1. Briefly: cell-based or functional assay.

Turning to B1, the binding result in series [1] and in series [2] was “binds” each time. B2: in series [3], the “bacteriolytic activity toward S. pyogenes (turbidity reduction assay) of ice-cold PlyCA mixed about 1:1 with PlyCB CBD heated to 75 °C and then rapidly cooled, relative to native PlyC” value is 35 % of the relative bacteriolytic activity of native PlyC.

For the origin of these results see publication PMC10604209, “Thermal Characterization and Interaction of the Subunits from the Multimeric Bacteriophage Endolysin PlyC” (Biology, 2023).
